Like-named read-outs stand apart in the source and are kept apart here.
T1: CHO expressed human interferon gamma (hIFNγ) (human, UniProt P01579 24-161, glycosylated (highly glycosylated form purified))
T1 chain: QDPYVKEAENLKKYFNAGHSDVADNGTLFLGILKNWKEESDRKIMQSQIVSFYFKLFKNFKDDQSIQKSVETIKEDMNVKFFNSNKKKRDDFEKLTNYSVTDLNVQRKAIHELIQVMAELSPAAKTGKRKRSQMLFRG

B1: BS-A Fab (soluble, purified) (Fab, V domains shown)
VH: QVQLQQWGAGLLKPSETLSLTCAVYGGSFSGYYWSWIRQPPGKGLEWIGEINHSGSTNYNPSLKSRVTISVDTSKNQFSLKLSSVTAADTAVYYCARGRARNWRSRFDYWGQGTLVTVSS
VL: NFMLTQPHSVSESPGKTVTISCTGSSGSIASHYVQWYQQRPGSAPTNVIYEDKERPSGVPDRFSGSIDSSTNSASLTISGLKTEDEADYYCQSYDSSNQWVFGGGTKLTVLG
B2: BS-A IgG (antibody, V domains shown)
VH: B1 VH
VL: B1 VL
B3: BS-B Fab (soluble, purified) (Fab, V domains shown)
VH: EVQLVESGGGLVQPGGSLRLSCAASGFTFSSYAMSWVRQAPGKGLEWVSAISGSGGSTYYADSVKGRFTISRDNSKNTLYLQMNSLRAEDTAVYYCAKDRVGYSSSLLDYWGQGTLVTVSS
VL: NFMLTQPHSVSESPGKTVTISCTRSSGSIASYYVQWYQQRPGSSPTTVIYEDDQRPSGVPDRFSGSIDSASNSASLTISGLQTEDEADYYCQSYDRNSLVFGGGTKLTVLG
B4: BS-B IgG (antibody, V domains shown)
VH: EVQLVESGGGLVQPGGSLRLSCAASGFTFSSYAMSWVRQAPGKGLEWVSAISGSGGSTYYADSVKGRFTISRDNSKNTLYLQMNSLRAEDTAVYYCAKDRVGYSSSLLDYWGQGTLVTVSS
VL: B3 VL
B5: 57E IgG (antibody, V domains shown)
VH: QVQLQESGPGLVKPSETLSLTCAVSGGSISSGGYSWSWIRQPPGKGLEWIGYIYHSGSTYYNPSLKSRVTISVDRSKNQFSLKLSSVTAADTAVYYCARGDWGYFDYWGQGTLVTVSS
VL: NFMLTQPHSVSESPGKTVTISCTGSSGSIANNYVHWYQQRPGSAPTTVIFEDDQRPSGVPDRFSGSVDSSSNSASLSISGLKTEDEADYYCQSYDNSNSFVVFGGGTKLTVLG
B6: Fab phage clone "IFN-A" (Fab, V domains shown)
VH: EVQLQQWGAGLLKPSETLSLTCAVYGGSFSGYYWSWIRQPPGKGLEWIGEINHSGSTNYNPSLKSRVTISVDTSKNQFSLKLSSVTAADTAVYYCARGWPTYVWGSYRPKGYFDYWGQGTLVTVSS
VL: EIVLTQSPLSLPVTPGEPASISCRSSQSLLHTNEYNYLDWYLQKPGQSPQLLIYLGSNRAPGVPDRFSGSGSGTDFTLRISRVEADDVGVYYCMQALQTPRTFGQGTKLEIKR
B7: IFN-A IgG (antibody, V domains shown)
VH: B6 VH
VL: B6 VL
B8: GP-A IgG (antibody, V domains shown)
VH: QVQLVETGGGVVQPGRSLRLSCAASGFTFSSYAMHWVRQAPGKGLEWVAVISYDGSNKYYADSVKGRFTISRDNSKNTLYLQMNSLRAEDTAVYYCASDLVLTMTSRRAAFDIWGQGTMVTVSS
VL: SYELTQPPSVSVSPGQTARITCSGDVLARKYARWFQQKPGQAPVLVIYKDRERPSGIPERFSGSTSGTTVTLTISGAQVEDEADYYCYSAADNRGVFGGGTKLTVLR
B9: Fab phage clone "GP-A" (Fab, V domains shown)
VH: B8 VH
VL: B8 VL

Key:
[1] = target: T1, CHO expressed human interferon gamma …; experiment: BIAcore
[2] = target: T1, CHO expressed human interferon gamma …; experiment: BIAcore

Binder	Kd [1]	Kd [2]
B1	84.3 nM	
B2	6 nM	6 nM
B3	83.5 nM	
B4	0.5 nM	0.5 nM
B5		200 nM
B6	420 nM	
B7	18 nM	18 nM
B8	8 nM	8 nM
B9	150 nM	

Source: patent publication US20030099647A1 (published 2003)
